Measured values as given in patent US20110021548A1, “INHIBITORS OF MALT1 PROTEOLYTIC ACTIVITY AND USES THEREOF” (priority 2007, published 2011).
“Also recorded” adds a separate entry of the source. code Z = not defined here

T1: MALT1 (Homo sapiens, UniProt Q9UDY8)
T1 construct: made in house
T1 sequence (Q9UDY8 334-824): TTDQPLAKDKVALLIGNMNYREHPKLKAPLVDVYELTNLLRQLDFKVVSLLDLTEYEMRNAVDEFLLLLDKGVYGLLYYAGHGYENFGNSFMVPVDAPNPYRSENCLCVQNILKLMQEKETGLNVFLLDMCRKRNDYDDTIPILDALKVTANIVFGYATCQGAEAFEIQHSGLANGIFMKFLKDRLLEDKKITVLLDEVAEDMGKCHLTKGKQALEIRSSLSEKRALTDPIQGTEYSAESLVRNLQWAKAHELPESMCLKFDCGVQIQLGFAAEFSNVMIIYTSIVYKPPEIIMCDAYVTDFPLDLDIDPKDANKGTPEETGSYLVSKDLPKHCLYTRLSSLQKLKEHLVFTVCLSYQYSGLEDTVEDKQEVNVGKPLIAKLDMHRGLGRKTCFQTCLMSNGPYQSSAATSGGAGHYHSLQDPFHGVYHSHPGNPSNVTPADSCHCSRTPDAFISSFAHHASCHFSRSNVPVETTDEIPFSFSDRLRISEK

T2: MALT1 (Homo sapiens, UniProt Q9UDY8)
T2 construct: made in house
T2 sequence (Q9UDY8 2-824): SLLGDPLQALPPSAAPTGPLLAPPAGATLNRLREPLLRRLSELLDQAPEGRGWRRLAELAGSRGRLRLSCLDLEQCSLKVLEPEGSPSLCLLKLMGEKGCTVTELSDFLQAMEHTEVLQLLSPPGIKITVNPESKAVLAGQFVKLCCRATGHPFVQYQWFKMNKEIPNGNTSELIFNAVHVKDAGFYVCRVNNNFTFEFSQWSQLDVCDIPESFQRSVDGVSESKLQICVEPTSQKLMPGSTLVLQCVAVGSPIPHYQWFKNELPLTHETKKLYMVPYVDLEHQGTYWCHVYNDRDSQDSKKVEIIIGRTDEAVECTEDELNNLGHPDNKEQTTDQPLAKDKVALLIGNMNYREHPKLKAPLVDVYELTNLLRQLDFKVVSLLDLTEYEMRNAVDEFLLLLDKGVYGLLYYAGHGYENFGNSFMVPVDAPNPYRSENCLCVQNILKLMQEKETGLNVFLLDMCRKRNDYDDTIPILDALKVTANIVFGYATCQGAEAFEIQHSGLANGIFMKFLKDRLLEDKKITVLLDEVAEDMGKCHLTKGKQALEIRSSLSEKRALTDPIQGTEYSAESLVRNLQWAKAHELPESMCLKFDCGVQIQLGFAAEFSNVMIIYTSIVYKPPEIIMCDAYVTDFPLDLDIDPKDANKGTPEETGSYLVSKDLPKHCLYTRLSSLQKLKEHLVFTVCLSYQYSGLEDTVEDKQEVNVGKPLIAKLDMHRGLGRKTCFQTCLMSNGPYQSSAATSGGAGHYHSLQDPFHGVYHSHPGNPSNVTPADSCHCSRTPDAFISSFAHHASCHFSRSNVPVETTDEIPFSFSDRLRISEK


What was measured:
Assay in all cases: MALT1 paracaspase assay (Ac-LSSR-AMC cleavage, AMC release)
[1] = target: T1, MALT1; type: biochemical; settings: recombinant MALT1 p20 fragment; substrate 100 μM; inhibitor 100 μM
[2] = target: T2, MALT1; type: biochemical; settings: bio-IP purified MALT1 from HEK-293T cells; substrate 100 μM; inhibitor 100 μM (equimolar)
[3] = test system: MALT1; type: biochemical, human; settings: for Inhibition of the MALT1 paracaspase activity by A. thaliana serpin: FIG. 11, several serpin concentrations

| Molecule | Inhibition of Ac-LSSR-AMC cleavage by recombinant MALT1 [1] | Inhibition of Ac-LSSR-AMC cleavage by bio-IP purified MALT1 [2] | Inhibition of the malt paracaspase activity in small compound screening ([3]; FIG. 12, different concentrations) | Inhibition of the MALT1 paracaspase activity by A. thaliana serpin [3] |
| --- | --- | --- | --- | --- |
| Z-GASR-CHO: peptide derivate (tetrapeptide GASR, SEQ ID NO:2), inhibitor of MALT1 proteolytic activity ({code Z}-GASR-aldehyde; reading uncertain; also: printed as Z-GASR-CHO) | completely blocked | efficiently blocked |  |  |
| Z-LSSR-CHO: peptide derivate (tetrapeptide LSSR, SEQ ID NO:1), inhibitor of MALT1 proteolytic activity, purchased from Anaspec ({code Z}-LSSR-aldehyde; reading uncertain; also: printed as Z-LSSR-CHO) | completely blocked | inhibits MALT1 proteolytic activity; also recorded: efficiently blocked |  |  |
| Cc1ccc(-c2ccc(C=C3C(=O)NC(=S)NC3=O)o2)cc1Cl [Inh03, 5-{[5-(3-chloro-4-methylphenyl)-2-furyl]methylene}-2-thioxodihydro-4,6(1H,5H)-pyrimidinedione] |  |  | Inhibitory effect |  |
| A. thaliana serpin (AT1g47710): Arabidopsis thaliana serpin (AT1g47710), indicated as serpin-wt (protein) MDVRESISLQNQVSMNLAKHVITTVSQNSNVIFSPASINVVLSIIAAGSAGATKDQILSFLKFSSTDQLNSFSSEIVSAVLADGSANGGPKLSVANGAWIDKSLSFKPSFKQLLEDSYKAASNQADFQSKAVEVIAEVNSWAEKETNGLITEVLPEGSADSMTKLIFANALYFKGTWNEKFDESLTQEGEFHLLDGNKVTAPFMTSKKKQYVSAYDGFKVLGLPYLQGQDKRQFSMYFYLPDANNGLSDLLDKIVSTPGFLDNHIPRRQVKVREFKIPKFKFSFGFDASNVLKGLGLTSPFSGEEGLTEMVESPEMGKNLCVSNIFHKACIEVNEEGTEAAAASAGVIKLRGLLMEEDEIDFVADHPFLLVVTENITGVVLFIGQVVDPLH |  |  |  | possible, but only at relatively high concentrations |
| IKLA-mutant: mutant serpin in which the reactive center loop has been replaced by the sequence IKLA (SEQ ID NO:16) (protein) MDVRESISLQNQVSMNLAKHVITTVSQNSNVIFSPASINVVLSIIAAGSAGATKDQILSFLKFSSTDQLNSFSSEIVSAVLADGSANGGPKLSVANGAWIDKSLSFKPSFKQLLEDSYKAASNQADFQSKAVEVIAEVNSWAEKETNGLITEVLPEGSADSMTKLIFANALYFKGTWNEKFDESLTQEGEFHLLDGNKVTAPFMTSKKKQYVSAYDGFKVLGLPYLQGQDKRQFSMYFYLPDANNGLSDLLDKIVSTPGFLDNHIPRRQVKVREFKIPKFKFSFGFDASNVLKGLGLTSPFSGEEGLTEMVESPEMGKNLCVSNIFHKACIEVNEEGTEAAAASAGVIKLAGLLMEEDEIDFVADHPFLLVVTENITGVVLFIGQVVDPLH |  |  |  | performing better than wild type serpin at higher concentrations |
